In PMC11497264 (2024):
Bridge positions count the residues as written; N and C are the ends.

Tests used:
[1] = target: T1, human glucose-regulated protein GRP78 (human, UniProt P11021 19-654); assay: SPR; two-state reaction model
[2] = target: T1, human glucose-regulated protein GRP78; assay: SPR; two-state model, kd1
[3] = target: T1, human glucose-regulated protein GRP78; assay: SPR
[4] = target: T1, human glucose-regulated protein GRP78; assay: SPR; remark: listed apart in the source

T1 sequence (P11021 19-654): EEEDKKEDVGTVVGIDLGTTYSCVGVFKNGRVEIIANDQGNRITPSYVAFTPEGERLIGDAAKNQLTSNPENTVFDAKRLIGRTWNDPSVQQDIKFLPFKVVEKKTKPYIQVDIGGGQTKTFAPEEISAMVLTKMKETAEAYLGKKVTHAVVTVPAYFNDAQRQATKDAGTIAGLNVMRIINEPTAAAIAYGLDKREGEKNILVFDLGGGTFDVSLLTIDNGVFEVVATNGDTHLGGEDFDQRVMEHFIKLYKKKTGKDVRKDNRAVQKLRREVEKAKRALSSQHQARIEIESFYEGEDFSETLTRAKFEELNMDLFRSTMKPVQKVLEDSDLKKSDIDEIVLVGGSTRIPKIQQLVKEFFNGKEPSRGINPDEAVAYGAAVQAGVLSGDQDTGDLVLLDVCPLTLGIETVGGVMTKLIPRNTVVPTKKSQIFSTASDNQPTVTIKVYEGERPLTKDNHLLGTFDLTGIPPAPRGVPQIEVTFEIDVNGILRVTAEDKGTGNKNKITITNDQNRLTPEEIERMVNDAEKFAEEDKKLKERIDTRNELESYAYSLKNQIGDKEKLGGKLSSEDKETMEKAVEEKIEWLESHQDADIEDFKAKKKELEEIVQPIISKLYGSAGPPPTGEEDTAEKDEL

B1: Pep42, 13-mer cyclopeptide (peptide)
peptide: H-CTVALPGGYVRVC-NH2
modifications: disulfide 1-13
SMILES: CC(C)C[C@@H]1NC(=O)[C@H](C)NC(=O)[C@H](C(C)C)NC(=O)[C@H]([C@@H](C)O)NC(=O)[C@@H](N)CSSC[C@@H](C(N)=O)NC(=O)[C@H](C(C)C)NC(=O)[C@H](CCCNC(=N)N)NC(=O)[C@H](C(C)C)NC(=O)[C@H](Cc2ccc(O)cc2)NC(=O)CNC(=O)CNC(=O)[C@@H]2CCCN2C1=O
Q: With B1 as the binder, how does the Kd [1] read?
A: 3430 µM

Q: What about the koff [2] of the same binder?
A: 0.678 s⁻¹

B2: LCP W, loop-derived cyclic peptide based on spike residues 480-488 of the Wuhan strain (peptide)
peptide: H-CNGVEGFNC-NH2
modifications: disulfide 1-9
SMILES: CC(C)[C@@H]1NC(=O)CNC(=O)[C@H](CC(N)=O)NC(=O)[C@@H](N)CSSC[C@@H](C(N)=O)NC(=O)[C@H](CC(N)=O)NC(=O)[C@H](Cc2ccccc2)NC(=O)CNC(=O)[C@H](CCC(=O)O)NC1=O
Q: Which Kd [3] does the source give for B2 here?
A: 259 µM

Q: And the koff [4]?
A: 0.43 s⁻¹
